# Measured values: article PMC9930174 (2022)
# T1: α-myosin (MYH6) peptide on H-2Kb (mouse)
# T1 peptide: VQQVYYSI
# T2: α-myosin (MYH6) peptide on HLA-A*24:02 (human)
# T2 peptide: RINATLETK
# T3: α-myosin (MYH6) peptide on HLA-A*03:01 (human)
# T3 peptide: RINATLETK
# T4: α-myosin (MYH6) peptide on H-2Kb (mouse)
# T4 peptide: VIQYFASI
# B1: TCR-C (TCR)
# alpha TRAV6D-6 TRAJ39 CDR3: CALGDRNNAGAKLTF
# beta TRBV12-2 TRBJ2-5 CDR3: CASSLGGTVQDTQYF
# B2: TCR-Pt1 (TCR)
# alpha TRAV19 TRAJ32 CDR3: CALSDRYGGATNKLIF
# beta TRBV9 TRBJ2-6 CDR3: CASSPYQSSGANVLTF
# B3: TCR-B (TCR)
# alpha TRAV13-1 TRAJ22 CDR3: CALERASGSWQLIF
# beta TRBV15 TRBJ2-7 CDR3: CASSLRRGEQYF
# What was measured:
# [1] = molecular target: T1, α-myosin (MYH6) peptide on H-2Kb; experiment: activation reporter or marker
# [2] = molecular target: T2, α-myosin (MYH6) peptide on HLA-A*24:02; experiment: multimer staining
# [3] = molecular target: T3, α-myosin (MYH6) peptide on HLA-A*03:01; experiment: multimer staining
# [4] = molecular target: T4, α-myosin (MYH6) peptide on H-2Kb; experiment: activation reporter or marker
binder,measurement,setting,value
B1,binding result,[1],recognises
B2,binding result,[2],no recognition
same,binding result,[3],recognises
B3,binding result,[4],recognises
